Source: US20260250410A1, “ANTIBODY AND USE THEREOF” (SICHUAN HUIYU PHARMACEUTICAL CO., LTD., priority 2022, published 2026)
Where a chain is given by its changes, count along the chain named.

B1: 1CP-063: anti-CDCP1 murine monoclonal antibody (hybridoma); VH SEQ ID NO: 263, VL SEQ ID NO: 313 (antibody, V domains shown)
VH: EVNLKESGPELVKPGASVRISCKASGYTFTSYYIHWVKQRPGQGLEWIGWIYPGNVNSKYNEKFKGKVTLTADKSSITAYMQLSSLTSEDSAVYFCAREDYGHYYAMDYWGQGTTVTVSS
VL: DIVMTQSPSSMYASLGERVTITCKASQDIKSYLSWYQQKPWKSPKTLIYYATSLADGVPSRFSGSGSGQDYSLTISSLESDDTATYYCLQYGESPWTFGGGTKLEIK
modifications: 1CP-063 heavy chain variable region; 1CP-063 light chain variable region
B2: 1CP-068: anti-CDCP1 murine monoclonal antibody (hybridoma); VH SEQ ID NO: 270, VL SEQ ID NO: 320 (antibody, V domains shown)
VH: EVQLKESGAELVRPGALVKLSCKASGFNIKDYYMYWVKQRPEQGLEWIGWIDPENGNTIYDPKLQGKARITADTSSNTAYLQLSSLTSEDTAVYYCAGRLYAMEYWGQGTTVTVSS
VL: DVVMTQTPALMSASPGEKVTMTCSASSSVSYMYWYQQKPRSSPKPWIYLTSNLASGVPARFSGSGSGTSYSLTISSMEAEDAATYYCQQWSSDPFTFGGGTKLEIK
modifications: 1CP-068 heavy chain variable region; 1CP-068 light chain variable region
B3: 1CP-061: anti-CDCP1 murine monoclonal antibody (hybridoma); VH SEQ ID NO: 262, VL SEQ ID NO: 312 (antibody, V domains shown)
VH: EVQLKESGAELVRPGASVKLSCKASGYTFTSYWINWVRQRPGQGLEWIGNIYPSDSYTNYNQKFKDKATLTVDKSSSTAYMQLSSPTSEDSAVYYCTRCLRRRDWYFDVWGQGTTVTVSS
VL: DVVMTQTPASLAVSLGQRATISCRASESVDYSGYSFMHWYQQKPGQPPKLLIYRASNLESGIPARFSGSGSRTDFTLTINPVEADDVATYYCQQSNEDPYTFGGGTKLEIK
modifications: 1CP-061 heavy chain variable region; 1CP-061 light chain variable region
B4: 1CP-062: anti-CDCP1 murine monoclonal antibody (hybridoma); VH SEQ ID NO: 264, VL SEQ ID NO: 314 (antibody, V domains shown)
VH: EVKLVESGPGLVAPSQSLSITCTVSGFSLTTYGVHWVRQPPGKGLEWLVVIWSDGNTTYNSALKSRLSINKDNSKSQVFLKMNSLQTDDTAMYYCAKNYRNYDYAMDYWGQGTTVTVSS
VL: B3 VL with V2I, Y31S, S32Y, Y34N
modifications: 1CP-062 heavy chain variable region; 1CP-062 light chain variable region
B5: 1CP-064: anti-CDCP1 murine monoclonal antibody (hybridoma); VH SEQ ID NO: 267, VL SEQ ID NO: 317 (antibody, V domains shown)
VH: EVKLVESGPGILQPSQTLSLTCSFSGFSLSTSGMGVGWIRQPSGKGLEWLAHIWWDDVKRYNPALKSRLTISKDTSSSQVFLKIASVDTADTATYYCARMGGKVPWFAYWGQGTTVTVSS
VL: B3 VL with Y31S, S32Y, Y34N, R54L, I62V, N80D, V87A, S95N, Y100W
modifications: 1CP-064 heavy chain variable region; 1CP-064 light chain variable region
B6: 1CP-065: anti-CDCP1 murine monoclonal antibody (hybridoma); VH SEQ ID NO: 269, VL SEQ ID NO: 319 (antibody, V domains shown)
VH: EVTLKESGAELVRPGALVKLSCKASGFNIKDYYMHWVKQRPEQGLEWIGWIDPENDNTIYDPKFQGKASITADTSSNTAYLQLSSLTSEDTAVYYCARFYGSYYYAMDYWGQGTTVTVSS
VL: DIVMTQSPKFMSTSVGDRVSITCKASQDVSTAVTWYQQKPGQSPKLLIYWASTRHTGVPDRFTGSGSGTDYTLTISSVQAEDLALYYCQQHYSTPYTFGGGTKLEIK
modifications: 1CP-065 heavy chain variable region; 1CP-065 light chain variable region
B7: 3F1A11-H-12: anti-CDCP1 murine monoclonal antibody (hybridoma); VH SEQ ID NO: 248, VL SEQ ID NO: 296 (antibody, V domains shown)
VH: EVKLVESGPGLVKPSQSLSLTCSVTGYSITSGYYWNWIRQFPGNKLDWMGYITYDDSHYYNPSLKDRLSITRDTSKNQFFLKLNSVTAEDTATYFCARGNYYANYPHAMDYWGQGTTVTVSS
VL: EIVLTQSPLSLPVSLGDQASISCRSRQTLVHTNGNTYLDWYLQKPGQSPKLLIYKVSIRFSGVPDRFSGSRSGTDFTLKISRVEAEDLGIYYCFQGSHVPWTFGGGTKLEIK
modifications: 3F1A11-H-12 heavy chain variable region; 3F1A11/3F1A11-H-12 light chain variable region
B8: 1CP-066: anti-CDCP1 murine monoclonal antibody (hybridoma); VH SEQ ID NO: 268, VL SEQ ID NO: 318 (antibody, V domains shown)
VH: EVTLKESGPELKKPGETVKISCKASGYAFTKYGMNWVKQAPGKDLKFMGWINTYTGEATYADDFKGRFDFSLEASASTAFLRINNLKNEDTATYFCSRGDDYGTGGYVLFYWGQGTTVTVSS
VL: DIVMTQAAASLSVTVGETVTITCRASENIYNNLAWYQQQQGKSPQLLVYAATNLADGVPSRFSGSGSGTHYSLKINSLQSEDFGFYYCQHFWGTPPTFGGGTKLEIK
modifications: 1CP-066 heavy chain variable region; 1CP-066 light chain variable region
B9: 12E6: anti-CDCP1 murine monoclonal antibody (hybridoma); VH SEQ ID NO: 255, VL SEQ ID NO: 305 (antibody, V domains shown)
VH: EVQLKESGPGILQPSQTLSLTCSFSGFSLSTSGMGVGWIRQPSGKGLEWLAHIWWDDVKLYNPALKSRLTISKETSNNQVFLKIASVDAADTATYYCARIDHGYGSNYWDFDVWGAGTTVTVSS
VL: DIVMTQAAPSVPVTPGGSVSISCRSTKSLLHSDGKTYLYWFLQRPGQSPQLLIYRMSNLASGVPDRFSGSGSGTAFTLRISRVEAEDVGVYYCMQHLEYPFTFGSGTKLEIK
modifications: 12E6 heavy chain variable region; 12E6 light chain variable region
B10: 1CP-067: anti-CDCP1 murine monoclonal antibody (hybridoma); VH SEQ ID NO: 265, VL SEQ ID NO: 315 (antibody, V domains shown)
VH: EVQLKESGGGLVKPGGSLKLSCTASGFTFSVYGMSWVRQTPEKRLEWVATLSGGSNYTYYSDSVKGRFTISRDTGKNNLYLQMSSLSSDDTALYYCATEDGLIGTWGDYWGQGTTVTVSS
VL: DIVMTQAAFSNPVTLGTSASISCRSTKSLLHSNGITYLYWFLQKPGQSPQLLIYQMSNLASGVPDRFSSSGSGTDFTLRISRVEAEDVGVYYCAQNLELPFTFGGGTKLEIK
modifications: 1CP-067 heavy chain variable region; 1CP-067 light chain variable region
B11: 1CP-069: anti-CDCP1 murine monoclonal antibody (hybridoma); VH SEQ ID NO: 266, VL SEQ ID NO: 316 (antibody, V domains shown)
VH: B10 VH with K5Q, E6Q, S55D, S61T, G75A, S87R, D89E, Y95F
VL: B10 VL with F41Y
modifications: 1CP-069 heavy chain variable region; 1CP-069 light chain variable region

Key:
PC3 cells = test: Endocytosis capacity of murine monoclonal antibody (flow cytometry internalization); type: cell-based, human; conditions: antibody 1.5 μg/mL; for Internalization PC3 (%) 2 h: PC3, 2 h at 37° C.
Method: (§1) The endocytosis capacity of the antibody was detected for 0.5 to 2 hours. MDA-MB-231 and PC3 cells were subjected to digestion with 5 mM EDTA, and plated at 4×10^4 cells/well after cell counting. After adding an Fc blocker (Human TruStain FcX™, Biolegend, 422302) and blocking at room temperature for 10 mins, a test antibody (1.5 μg/mL) was added, and the mixture was incubated at 4° C. for 30 mins, centrifuged, and washed twice with PBS+2% FBS, then the cells were divided into four equal portions (labeled as 0 h, 0.5 h, 1 h, 2 h), cells labeled as 0.5 h, 1 h, 2 h time points were added to a cell culture medium at 200 µL/well, and cultured at 37° C. for 0.5 h, 1 h, 2 h, respectively. Cells at 0 h point were centrifuged to remove supernatant, a secondary antibody (PE anti-human IgG Fc Antibody, Biolegend, 410708) was added, and the mixture was incubated at 4° C. for 30 mins, centrifuged, and washed twice with PBS+2% FBS, and detection was performed using a flow cytometer. After incubation of cells labeled as 0.5 h, 1 h, and 2 h points at 37° C. was completed, a secondary antibody was added (in the same steps as those at 0 h point), Geo-MFI of the signal under the same voltage was collected as detection signal at 0 h, and antibody internalization rate was calculated according to the following equation: Internalization (%)=(Geo-MFI (0 h)-Geo-MFI (0.5, 1, 2 h))/Geo-MFI (0 h)×100%.

MDA-MB-231 cells = test: as above; type: cell-based, human; conditions: antibody 1.5 μg/mL; for Internalization MDA-MB-231 (%) 2 h: MDA-MB-231, 2 h at 37° C.
Method: as §1

Molecule | Internalization PC3 (%) 2 h (PC3 cells) | Internalization MDA-MB-231 (%) 2 h (MDA-MB-231 cells) | Internalization PC3 (%) 0.5 h (PC3 cells; PC3, 0.5 h at 37° C.) | Internalization PC3 (%) 1 h (PC3 cells; PC3, 1 h at 37° C.) | Internalization MDA-MB-231 (%) 0.5 h (MDA-MB-231 cells; MDA-MB-231, 0.5 h at 37° C.) | Internalization MDA-MB-231 (%) 1 h (MDA-MB-231 cells; MDA-MB-231, 1 h at 37° C.)
B1 | 62.68% | 49.71% | – | – | – | –
B2 | 66.24% | 49.47% | – | – | – | –
B3 | 28.00% | 42.68% | – | – | – | –
B4 | 66.74% | 59.61% | – | – | – | –
B5 | 93.05% | 93.43% | – | – | – | –
B6 | 68.71% | 52.89% | – | – | – | –
B7 | 33.83% | 37.57% | – | – | – | –
B8 | 33.21% | 55.57% | – | – | – | –
B9 | 7.99% | 27.65% | 0.00% | 0.00% | 10.62% | 7.08%
B10 | 72.66% | 69.09% | – | – | – | –
B11 | 73.92% | 73.58% | – | – | – | –
